# PMC11481574
# “And” between values parts separate entries of the source, which are not always exact repeats. Equal values may be shown once.
# Target: Vibrio His-FliFG fusion protein with the FliG-G214S mutation (Vibrio alginolyticus)
# Assay: cryo-EM structure; single-particle cryo-EM of the purified, concentrated MS-ring in buffer with LMNG; grids frozen after blotting at 4°C, 100% humidity; two classes with 35- or 34-fold rotational symmetry
substance,measurement,value
Vibrio His-FliFG fusion protein with the FliG-G214S mutation,stoichiometry N,35 and 34
